# Measurements: patent US20220332804A1 (CSL INNOVATION, published 2022)
# T1: human C2 E275A (human, UniProt P06681 21-752)
# T1 sequence: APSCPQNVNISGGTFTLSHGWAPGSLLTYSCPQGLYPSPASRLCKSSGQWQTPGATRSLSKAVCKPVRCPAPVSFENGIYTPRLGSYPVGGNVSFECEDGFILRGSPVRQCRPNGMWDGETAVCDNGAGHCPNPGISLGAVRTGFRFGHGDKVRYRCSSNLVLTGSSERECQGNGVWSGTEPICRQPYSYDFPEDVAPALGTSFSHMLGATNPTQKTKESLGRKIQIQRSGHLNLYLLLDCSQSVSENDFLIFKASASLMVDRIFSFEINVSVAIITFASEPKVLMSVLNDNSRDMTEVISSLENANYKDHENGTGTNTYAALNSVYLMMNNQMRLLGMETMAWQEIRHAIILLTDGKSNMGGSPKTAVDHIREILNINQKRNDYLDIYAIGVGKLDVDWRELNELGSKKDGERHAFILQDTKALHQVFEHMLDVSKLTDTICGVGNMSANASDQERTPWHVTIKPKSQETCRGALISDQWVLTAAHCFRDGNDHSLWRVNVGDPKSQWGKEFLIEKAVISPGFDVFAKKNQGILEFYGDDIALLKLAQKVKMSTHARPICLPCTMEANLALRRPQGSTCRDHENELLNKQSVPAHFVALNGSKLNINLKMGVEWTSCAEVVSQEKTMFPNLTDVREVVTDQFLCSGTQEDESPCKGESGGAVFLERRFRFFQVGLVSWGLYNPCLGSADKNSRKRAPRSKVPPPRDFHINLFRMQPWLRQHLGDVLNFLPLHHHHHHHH
# T2: human C2 L453A (human, UniProt P06681 21-752)
# T2 sequence: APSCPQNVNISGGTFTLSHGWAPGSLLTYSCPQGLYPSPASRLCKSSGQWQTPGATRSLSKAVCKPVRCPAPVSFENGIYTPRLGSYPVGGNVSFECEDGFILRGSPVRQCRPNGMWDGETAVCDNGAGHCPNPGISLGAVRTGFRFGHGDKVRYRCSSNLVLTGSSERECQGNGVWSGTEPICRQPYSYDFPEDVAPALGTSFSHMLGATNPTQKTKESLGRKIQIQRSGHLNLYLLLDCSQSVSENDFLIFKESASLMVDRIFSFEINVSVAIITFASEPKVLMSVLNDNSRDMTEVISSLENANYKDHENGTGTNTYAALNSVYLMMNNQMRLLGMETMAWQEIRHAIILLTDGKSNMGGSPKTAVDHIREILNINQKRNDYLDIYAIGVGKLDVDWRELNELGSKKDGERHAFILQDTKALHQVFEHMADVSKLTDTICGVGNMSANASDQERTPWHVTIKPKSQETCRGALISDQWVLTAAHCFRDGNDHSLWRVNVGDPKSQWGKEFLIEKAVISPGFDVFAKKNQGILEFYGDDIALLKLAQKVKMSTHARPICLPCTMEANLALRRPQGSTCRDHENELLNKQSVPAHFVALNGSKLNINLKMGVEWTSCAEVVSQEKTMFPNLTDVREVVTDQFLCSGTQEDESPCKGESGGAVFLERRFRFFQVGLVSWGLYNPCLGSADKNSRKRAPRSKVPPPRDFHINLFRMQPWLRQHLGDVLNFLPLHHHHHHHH
# T3: human C2 E450A (human, UniProt P06681 21-752)
# T3 sequence: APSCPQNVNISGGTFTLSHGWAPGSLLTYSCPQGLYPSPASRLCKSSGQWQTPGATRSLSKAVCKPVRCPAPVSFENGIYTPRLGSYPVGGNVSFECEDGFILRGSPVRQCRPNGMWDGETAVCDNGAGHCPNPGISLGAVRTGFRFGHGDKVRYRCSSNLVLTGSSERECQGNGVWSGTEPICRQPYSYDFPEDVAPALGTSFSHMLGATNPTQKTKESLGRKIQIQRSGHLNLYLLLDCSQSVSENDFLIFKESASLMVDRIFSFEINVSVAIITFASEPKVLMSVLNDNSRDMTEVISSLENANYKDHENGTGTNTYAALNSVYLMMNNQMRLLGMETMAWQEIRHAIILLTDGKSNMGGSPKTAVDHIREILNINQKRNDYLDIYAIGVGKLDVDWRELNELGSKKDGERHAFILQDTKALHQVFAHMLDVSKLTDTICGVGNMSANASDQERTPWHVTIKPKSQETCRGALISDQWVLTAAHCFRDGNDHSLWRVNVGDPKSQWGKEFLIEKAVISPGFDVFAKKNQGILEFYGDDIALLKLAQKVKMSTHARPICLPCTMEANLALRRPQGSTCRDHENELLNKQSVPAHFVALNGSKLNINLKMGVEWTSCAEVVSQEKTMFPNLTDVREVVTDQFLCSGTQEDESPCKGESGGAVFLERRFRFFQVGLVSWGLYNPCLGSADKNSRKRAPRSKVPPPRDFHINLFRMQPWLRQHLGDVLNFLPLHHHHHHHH
# T4: human C2 K274A (human, UniProt P06681 21-752)
# T4 sequence: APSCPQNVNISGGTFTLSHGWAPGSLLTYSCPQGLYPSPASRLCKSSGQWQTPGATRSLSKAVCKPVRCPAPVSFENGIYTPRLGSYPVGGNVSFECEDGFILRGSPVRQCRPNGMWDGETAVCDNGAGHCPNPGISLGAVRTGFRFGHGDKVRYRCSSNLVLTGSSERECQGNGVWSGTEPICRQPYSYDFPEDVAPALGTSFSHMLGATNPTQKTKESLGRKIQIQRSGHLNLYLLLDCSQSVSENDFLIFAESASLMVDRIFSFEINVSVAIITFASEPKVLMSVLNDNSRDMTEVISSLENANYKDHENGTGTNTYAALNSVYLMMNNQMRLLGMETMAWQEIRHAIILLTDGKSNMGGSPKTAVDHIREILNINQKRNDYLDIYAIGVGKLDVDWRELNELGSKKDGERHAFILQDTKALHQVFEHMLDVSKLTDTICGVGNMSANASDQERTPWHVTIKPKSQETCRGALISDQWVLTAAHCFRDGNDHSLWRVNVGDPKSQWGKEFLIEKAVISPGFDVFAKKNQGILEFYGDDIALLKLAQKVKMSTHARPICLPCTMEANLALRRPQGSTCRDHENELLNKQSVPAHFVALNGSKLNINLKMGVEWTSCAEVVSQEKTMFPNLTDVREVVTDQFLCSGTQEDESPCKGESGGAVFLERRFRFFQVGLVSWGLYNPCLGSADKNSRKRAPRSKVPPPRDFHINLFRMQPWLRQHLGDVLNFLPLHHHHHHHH
# Key:
# Assay in all cases: SPR, antibody captured, C2 as analyte;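 further: biacore at 37 °C, anti-C2 mAbs held by immobilised goat anti-human IgG, C2 alanine or serine mutants injected, double-referenced sensorgrams fitted to a 1:1 kinetic or steady-state model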
# human C2 E275A = molecular target: T1, human C2 E275A
# human C2 L453A = molecular target: T2, human C2 L453A
# human C2 E450A = molecular target: T3, human C2 E450A
# human C2 K274A = molecular target: T4, human C2 K274A
binder,measurement,setting,value
"RF16-242 (antibody, human IgG4 S228P, lambda, V domains shown, pH-dependent anti-C2 antibody from a phage display library) VH: EVQLLQSGAEVKKPGESLKISCKGSGYSFTSYWIGWVRQMPGKGLEWMGIIYPGDSDTRYSPSFQGQVTISADKSISTAYLQWSSLKASDTAMYYCARRGHYGDYFDYWGQGTLVTVSS VL: SYELTQPPSVSVSPGQTARITCSGDALPKKYAYWYHQKSGQAPVLVIYEDRRRPSEIPERFSGSSSGTMATLTITGAQVEDEGVYFCYSRDRAGNQRVFGGGTQLTVLG",Kd,human C2 E275A,0.0428 µM
same,Kd,human C2 L453A,0.0068 µM
same,Kd,human C2 E450A,0.0203 µM
same,Kd,human C2 K274A,0.0869 µM
